Data on four molecules can be found in publication PMC4725857.

Assay [1] concerns the target BBK32-C (C-terminal region of BBK32, residues 206-354) (B. burgdorferi B31) (UniProt O50835). Put plainly: SPR; Biacore 3000, 25°C; BBK32 proteins immobilised by amine coupling on a C1 sensor chip; running buffer HBS-T-Ca2+ (20 mM HEPES pH 7.3, 140 mM NaCl, 0.005% Tween 20, 5 mM CaCl2), 10 μl/min; C1 0.2-100 nM, C1r enzyme 0.39-200 nM or 2.0-1000 nM series, 1:1 (Langmuir) kinetic fit; single C1 components at a fixed 50 nM. A general note: In SPR one partner is held on a chip, and binding of the other changes the refractive index at the surface.

The target of assay [2] is BBK32-FL (recombinant BBK32, residues 21 to 354) (B. burgdorferi B31) (UniProt O50835). The assay is described as above.
Assay [3] concerns the target C1r enzyme (activated human complement C1r protease) (human).
Assay [4] addresses first component of human complement, C1 (C1 complex) (human) (UniProt P02745).

The term Kd denotes the concentration at which binding is half-saturated. By koff is commonly meant the rate constant with which the complex falls apart. The kon is the second-order rate constant of association.

In assay [1], “first component of human complement, C1 (C1 complex) (from UniProt P02745 23-245; P02746 28-253; P02747 29-245)” gave a Kd of 2.3 nM.
As to “C1r enzyme (activated human complement C1r protease)”, in assay [2], the Kd was 15 nM, the koff turned out to be 0.00022 s⁻¹ and the kon stood at 19000 M⁻¹ s⁻¹. In assay [1], the Kd turned out to be 32 nM, the off-rate constant (koff) was found to be 0.00011 s⁻¹ and the association rate constant (kon) turned out to be 3900 M⁻¹ s⁻¹.

B1: BBK32-FL (recombinant BBK32, residues 21 to 354) (natural protein)
chain: DLFIRYEMKEESPGLFDKGNSILETSEESIKKPMNKKGKGKIARKKGKSKVSRKEPYIHSLKRDSANKSNFLQKNVILEEESLKTELLKEQSETRKEKIQKQQDEYKGMTQGSLNSLSGESGELEEPIESNEIDLTIDSDLRPKSSLQGIAGSNSISYTDEIEEEDYDQYYLDEYDEEDEEEIRLSNRYQSYLEGVKYNVDSAIQTITKIYNTYTLFSTKLTQMYSTRLDNFAKAKAKEEAAKFTKEDLEKNFKTLLNYIQVSVKTAANFVYINDTHAKRKLENIEAEIKTLIAKIKEQSNLYEAYKAIVTSILLMRDSLKEVQGIIDKNGVWY
As to B1, the IC50 of C1r enzyme activity (cleavage of C1s proenzyme by 50 nM C1r enzyme, SDS-PAGE densitometry) in assay [3] came out at 670 nM. In addition, in assay [4], the IC50 of classical pathway inhibition, ELISA: C3b detection (immobilised human IgM, 1% human serum) was 34 nM; the IC50 of classical pathway inhibition, ELISA: C4b detection (immobilised human IgM, 1% human serum) worked out at 34 nM; the IC50 of inhibition of CP-mediated hemolysis (CP50, sensitized sheep erythrocytes, 1% normal human serum) worked out at 110 nM.

B2: BBK32-C (C-terminal region of BBK32, residues 206-354) (domain or fragment)
chain: SNRYQSYLEGVKYNVDSAIQTITKIYNTYTLFSTKLTQMYSTRLDNFAKAKAKEEAAKFTKEDLEKNFKTLLNYIQVSVKTAANFVYINDTHAKRKLENIEAEIKTLIAKIKEQSNLYEAYKAIVTSILLMRDSLKEVQGIIDKNGVWY
With B2, the IC50 of C1r enzyme activity (cleavage of C1s proenzyme by 50 nM C1r enzyme, SDS-PAGE densitometry) in assay [3] was 540 nM. Further, in assay [4], the IC50 of classical pathway inhibition, ELISA: C3b detection (immobilised human IgM, 1% human serum) was 4.7 nM; the IC50 of classical pathway inhibition, ELISA: C4b detection (immobilised human IgM, 1% human serum) was 5.6 nM; the IC50 of inhibition of CP-mediated hemolysis (CP50, sensitized sheep erythrocytes, 1% normal human serum) came out at 60 nM.
